The subject of the assay is AHAS minus E. coli. The assay can be described thus: E. coli complementation assay, Arabidopsis AHASL mutants (AE plasmids) with imazethapyr. It is filed as cell-based. The conditions noted are these: colony size scored visually in the presence of imazethapyr. An excerpt:
Vectors AE10 through AE24 were made as follows. The wild type Arabidopsis thaliana AHAS large subunit gene was amplified under mutagenic conditions using the Genemorph II random mutagenesis kit (Stratagene, La Jolla, Calif.), resulting in randomly mutagenized amplified DNA fragments of this gene. This mutant DNA was then cloned back into AE7, replacing the wild type A. thaliana large subunit gene (between the unique SacII and AgeI sites on AE7) with the mutagenized forms. This DNA was transformed into E. coli strain TOP10 and selected on LB agar medium in such a fashion as to have a large number of unique transformants, each with independent, mutagenized AHAS genes. These colonies were scraped together and plasmid DNA was prepared from this entire primary library. This DNA was transformed into AHAS minus E. coli and again selected on LB agar media with carbenicillin. Plasmid positive colonies from this step were replica plated using velveteen onto minimal agar medium without branched chain amino acids and containing 30-micromolar imazethapyr.
The DNA sequence of the A. thaliana AHAS large subunit gene was determined for each of the growth positive colonies. […] Because the AHAS function and imidazolinone tolerance screen was on a secondary library, replicates of the same mutations were found, as determined by DNA sequence analysis. […]

B1: AE7: E. coli expression plasmid, Arabidopsis AHASL wild type (protein, UniProt P17597 56-670, looked up)
Acetolactate synthase, …: SSSPSSISAVLNTTTNVTTTPSPTKPTKPETFISRFAPDQPRKGADILVEALERQGVETVFAYPGGASMEIHQALTRSSSIRNVLPRHEQGGVFAAEGYARSSGKPGICIATSGPGATNLVSGLADALLDSVPLVAITGQVPRRMIGTDAFQETPIVEVTRSITKHNYLVMDVEDIPRIIEEAFFLATSGRPGPVLVDVPKDIQQQLAIPNWEQAMRLPGYMSRMPKPPEDSHLEQIVRLISESKKPVLYVGGGCLNSSDELGRFVELTGIPVASTLMGLGSYPCDDELSLHMLGMHGTVYANYAVEHSDLLLAFGVRFDDRVTGKLEAFASRAKIVHIDIDSAEIGKNKTPHVSVCGDVKLALQGMNKVLENRAEELKLDFGVWRNELNVQKQKFPLSFKTFGEAIPPQYAIKVLDELTDGKAIISTGVGQHQMWAAQFYNYKKPRQWLSSGGLGAMGFGLPAAIGASVANPDAIVVDIDGDGSFIMNVQELATIRVENLPVKVLLLNNQHLGMVMQWEDRFYKANRAHTFLGDPAQEDEIFPNMLLFAAACGIPAARVTKKADLREAIQTMLDTPGPYLLDVICPHQEHVLPMIPSGGTFNDVITEGDGRIKY
Consider B1, for which the “E. coli Imazethapyr Tolerance Score” value is “− (IN)”.

The record behind these values is patent publication US20150299726A1, “AHAS MUTANTS” (BASF PLANT SCIENCE GMBH, priority 2007, published 2015).
